Measurements: patent publication US20110118447A1
Residue numbers refer to the chain shown, from its start. In names and notes the source's numbering stands.

B1: C5A (XPA23) VH S52A (antibody, V domains shown)
VH: EVQLLESGGGLVQPGGSLRLSCAASGFTFSKYFMFWVRQAPGKGLEWVSVIAPSGGMTRYADSVKGRFTISRDNSKNTLYLQMNSLRAEDTAVYYCARVGYGGNSDYWGQGTLVTVSS
VL: DIQMTQSPSSVSASVGDRLTIICRASQDINRWLAWYQQTPGNAPKLLIHSATSLQSGVPSRFSGSGSGTDFTLTINSLQPEDFATYYCQQADSFPLTFGGGTKVEIK
B2: C5A (XPA23) VH S52V (antibody, V domains shown)
VH: B1 VH with A52V
VL: B1 VL
B3: C5A (XPA23) VH S52P (antibody, V domains shown)
VH: B1 VH with A52P
VL: B1 VL
B4: C5A (XPA23) VH P53G (antibody, V domains shown)
VH: B1 VH with A52S, P53G
VL: B1 VL
B5: C5A (XPA23) VH P53A (antibody, V domains shown)
VH: B1 VH with A52S, P53A
VL: B1 VL
B6: C5A (XPA23) VH P53V (antibody, V domains shown)
VH: B1 VH with A52S, P53V
VL: B1 VL
B7: C5A (XPA23) VH P53I (antibody, V domains shown)
VH: B1 VH with A52S, P53I
VL: B1 VL
B8: C5A (XPA23) VH P53L (antibody, V domains shown)
VH: B1 VH with A52S, P53L
VL: B1 VL
B9: C5A (XPA23) VH P53F (antibody, V domains shown)
VH: B1 VH with A52S, P53F
VL: B1 VL
B10: C5A (XPA23) VH P53W (antibody, V domains shown)
VH: B1 VH with A52S, P53W
VL: B1 VL
B11: C5A (XPA23) VH S54G (antibody, V domains shown)
VH: B1 VH with A52S, S54G
VL: B1 VL
B12: C5A (XPA23) VH S54A (antibody, V domains shown)
VH: B1 VH with A52S, S54A
VL: B1 VL
B13: C5A (XPA23) VH S54V (antibody, V domains shown)
VH: B1 VH with A52S, S54V
VL: B1 VL
B14: C5A (XPA23) VH S54I (antibody, V domains shown)
VH: B1 VH with A52S, S54I
VL: B1 VL
B15: C5A (XPA23) VH S54L (antibody, V domains shown)
VH: B1 VH with A52S, S54L
VL: B1 VL
B16: C5A (XPA23) VH S54F (antibody, V domains shown)
VH: B1 VH with A52S, S54F
VL: B1 VL
B17: C5A (XPA23) VH S54W (antibody, V domains shown)
VH: B1 VH with A52S, S54W
VL: B1 VL
B18: C5A (XPA23) VH S54P (antibody, V domains shown)
VH: B1 VH with A52S, S54P
VL: B1 VL
B19: C5A (XPA23) VH G55I (antibody, V domains shown)
VH: B1 VH with A52S, G55I
VL: B1 VL
B20: C5A (XPA23) VH G55L (antibody, V domains shown)
VH: B1 VH with A52S, G55L
VL: B1 VL
B21: C5A (XPA23) VH G56A (antibody, V domains shown)
VH: B1 VH with A52S, G56A
VL: B1 VL
B22: C5A (XPA23) VH G56I (antibody, V domains shown)
VH: B1 VH with A52S, G56I
VL: B1 VL
B23: C5A (XPA23) VH G56L (antibody, V domains shown)
VH: B1 VH with A52S, G56L
VL: B1 VL
B24: C5A (XPA23) VH G56F (antibody, V domains shown)
VH: B1 VH with A52S, G56F
VL: B1 VL
B25: C5A (XPA23) VH G56W (antibody, V domains shown)
VH: B1 VH with A52S, G56W
VL: B1 VL
B26: C5A (XPA23) VH G56P (antibody, V domains shown)
VH: B1 VH with A52S, G56P
VL: B1 VL
B27: C5A (XPA23) VH M57A (antibody, V domains shown)
VH: B1 VH with A52S, M57A
VL: B1 VL
B28: C5A (XPA23) VH M57V (antibody, V domains shown)
VH: B1 VH with A52S, M57V
VL: B1 VL
B29: C5A (XPA23) VH M57I (antibody, V domains shown)
VH: B1 VH with A52S, M57I
VL: B1 VL
B30: C5A (XPA23) VH M57L (antibody, V domains shown)
VH: B1 VH with A52S, M57L
VL: B1 VL
B31: C5A (XPA23) VH M57F (antibody, V domains shown)
VH: B1 VH with A52S, M57F
VL: B1 VL
B32: C5A (XPA23) VH T58G (antibody, V domains shown)
VH: B1 VH with A52S, T58G
VL: B1 VL
B33: C5A (XPA23) VH T58A (antibody, V domains shown)
VH: B1 VH with A52S, T58A
VL: B1 VL
B34: C5A (XPA23) VH T58V (antibody, V domains shown)
VH: B1 VH with A52S, T58V
VL: B1 VL
B35: C5A (XPA23) VH T58I (antibody, V domains shown)
VH: B1 VH with A52S, T58I
VL: B1 VL
B36: C5A (XPA23) VH T58L (antibody, V domains shown)
VH: B1 VH with A52S, T58L
VL: B1 VL
B37: C5A (XPA23) VH T58F (antibody, V domains shown)
VH: B1 VH with A52S, T58F
VL: B1 VL
B38: C5A (XPA23) VH T58W (antibody, V domains shown)
VH: B1 VH with A52S, T58W
VL: B1 VL
B39: C5A (XPA23) VH T58P (antibody, V domains shown)
VH: B1 VH with A52S, T58P
VL: B1 VL

target: binding partner of C5A (XPA23); test: Biacore

Binder | fold difference in affinity vs original [fold] | fold affinity vs original [fold]
B1 | 0.05 | –
B2 | 0.04 | –
B3 | 0.05 | –
B4 | 0.02 | –
B5 | 0.05 | –
B6 | 1.1 | –
B7 | 0.08 | –
B8 | 0.04 | –
B9 | – | 0.05
B10 | – | 0.05
B11 | 1.43 | –
B12 | 1 | –
B13 | 1 | –
B14 | 0.86 | –
B15 | 0.91 | –
B16 | – | 0.87
B17 | – | 1.07
B18 | 0.06 | –
B19 | 0.86 | –
B20 | 0.08 | –

Binder | fold difference in affinity vs original [fold] | fold affinity vs original [fold]
B21 | 1.21 | –
B22 | 1.71 | –
B23 | 1.41 | –
B24 | – | 1.41
B25 | – | 1.51
B26 | 0.85 | –
B27 | 0.03 | –
B28 | 0.03 | –
B29 | 0.03 | –
B30 | 0.06 | –
B31 | – | 1.03
B32 | 0.95 | –
B33 | 0.14 | –
B34 | 0.99 | –
B35 | 0.95 | –
B36 | 0.95 | –
B37 | – | 1.04
B38 | – | 0.93
B39 | 1.81 | –

target: binding partner (antigen) of C5A (XPA23); test: Biacore, K-off, fold vs original

Binder | fold difference in affinity vs original [fold]
B1 | 0.05
B2 | 0.04
B3 | 0.05
B4 | 0.02
B5 | 0.05
B6 | 1.1
B7 | 0.08
B8 | 0.04
B9 | 0.05
B10 | 0.05
B11 | 1.43
B12 | 1
B13 | 1
B14 | 0.86
B15 | 0.91
B16 | 0.87
B17 | 1.07
B18 | 0.06
B19 | 0.86
B20 | 0.08

Binder | fold difference in affinity vs original [fold]
B21 | 1.21
B22 | 1.71
B23 | 1.41
B24 | 1.41
B25 | 1.51
B26 | 0.85
B27 | 0.03
B28 | 0.03
B29 | 0.03
B30 | 0.06
B31 | 1.03
B32 | 0.95
B33 | 0.14
B34 | 0.99
B35 | 0.95
B36 | 0.95
B37 | 1.04
B38 | 0.93
B39 | 1.81
